In paper PMC10977726 (2024) one finds Kd data, which are given here for seven molecules.

First the molecules themselves.
B1: rat serum albumin (natural protein)
chain: EAHKSEIAHRFKDLGEQHFKGLVLIAFSQYLQKCPYEEHIKLVQEVTDFAKTCVADENAENCDKSIHTLFGDKLCAIPKLRDNYGELADCCAKQEPERNECFLQHKDDNPNLPPFQRPEAEAMCTSFQENPTSFLGHYLHEVARRHPYFYAPELLYYAEKYNEVLTQCCTESDKAACLTPKLDAVKEKALVAAVRQRMKCSSMQRFGERAFKAWAVARMSQRFPNAEFAEITKLATDVTKINKECCHGDLLECADDRAELAKYMCENQATISSKLQACCDKPVLQKSQCLAEIEHDNIPADLPSIAADFVEDKEVCKNYAEAKDVFLGTFLYEYSRRHPDYSVSLLLRLAKKYEATLEKCCAEGDPPACYGTVLAEFQPLVEEPKNLVKTNCELYEKLGEYGFQNAVLVRYTQKAPQVSTPTLVEAARNLGRVGTKCCTLPEAQRLPCVEDYLSAILNRLCVLHEKTPVSEKVTKCCSGSLVERRPCFSALTVDETYVPKEFKAETFTFHSDICTLPDKEKQIKKQTALAELVKHKPKATEDQLKTVMGDFAQFVDKCCKAADKDNCFATEGPNLVARSKEALA
modifications: biotin
B2: rabbit IgG Fc (domain or fragment)
chain: PSTCSKPTCPPPELLGGPSVFIFPPKPKDTLMISRTPEVTCVVVDVSQDDPEVQFTWYINNEQVRTARPPLREQQFNSTIRVVSTLPITHQDWLRGKEFKCKVHNKALPAPIEKTISKARGQPLEPKVYTMGPPREELSSRSVSLTCMINGFYPSDISVEWEKNGKAEDNYKTTPAVLDSDGSYFLYNKLSVPTSEWQRGDVFTCSVMHEALHNHYTQKSISRSPGK
modifications: biotin
B3: mouse IgG Fc (domain or fragment)
chain: VPRDCGCKPCICTVPEVSSVFIFPPKPKDVLTITLTPKVTCVVVDISKDDPEVQFSWFVDDVEVHTAQTQPREEQFNSTFRSVSELPIMHQDWLNGKEFKCRVNSAAFPAPIEKTISKTKGRPKAPQVYTIPPPKEQMAKDKVSLTCMITDFFPEDITVEWQWNGQPAENYKNTQPIMNTNGSYFVYSKLNVQKSNWEAGNTFTCSVLHEGLHNHHTEKSLSHSPGK
modifications: biotin

Among the targets are Hs-CHR-3 (synthetic); Ig-CON-5 (synthetic); protein A (UniProt P38507 37-477); mouse serum albumin (mouse, UniProt P07724 25-608, biotin); human serum albumin (human, UniProt P02768 25-609, biotin).
What all share (assay): SPR
In general terms: SPR reads the build-up and loss of mass on a sensor chip optically.

The assay “rabbit IgG Fc” concerns the target B2.
The assay “mouse IgG Fc” concerns the target B3.
The target of another assay is T1, rabbit serum albumin (rabbit, UniProt P49065 25-608, biotin).
T1 chain: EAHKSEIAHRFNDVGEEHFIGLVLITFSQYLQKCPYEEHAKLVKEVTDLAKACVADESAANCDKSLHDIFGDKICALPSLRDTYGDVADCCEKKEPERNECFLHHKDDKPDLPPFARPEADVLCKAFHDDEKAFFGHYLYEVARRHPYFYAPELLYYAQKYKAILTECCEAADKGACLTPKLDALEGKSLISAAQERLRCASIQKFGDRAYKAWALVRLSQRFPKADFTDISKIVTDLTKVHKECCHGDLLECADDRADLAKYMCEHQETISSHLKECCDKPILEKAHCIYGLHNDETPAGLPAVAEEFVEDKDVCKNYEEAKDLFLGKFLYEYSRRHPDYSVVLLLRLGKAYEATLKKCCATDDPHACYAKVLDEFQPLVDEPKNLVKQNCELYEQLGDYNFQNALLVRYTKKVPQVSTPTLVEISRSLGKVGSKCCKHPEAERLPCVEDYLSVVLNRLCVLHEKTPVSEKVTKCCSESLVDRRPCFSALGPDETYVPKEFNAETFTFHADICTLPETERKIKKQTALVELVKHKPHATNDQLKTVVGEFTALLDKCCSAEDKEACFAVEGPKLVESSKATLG

The target in the assay “rat serum albumin” is B1.

Sequence of mouse serum albumin (P07724 25-608): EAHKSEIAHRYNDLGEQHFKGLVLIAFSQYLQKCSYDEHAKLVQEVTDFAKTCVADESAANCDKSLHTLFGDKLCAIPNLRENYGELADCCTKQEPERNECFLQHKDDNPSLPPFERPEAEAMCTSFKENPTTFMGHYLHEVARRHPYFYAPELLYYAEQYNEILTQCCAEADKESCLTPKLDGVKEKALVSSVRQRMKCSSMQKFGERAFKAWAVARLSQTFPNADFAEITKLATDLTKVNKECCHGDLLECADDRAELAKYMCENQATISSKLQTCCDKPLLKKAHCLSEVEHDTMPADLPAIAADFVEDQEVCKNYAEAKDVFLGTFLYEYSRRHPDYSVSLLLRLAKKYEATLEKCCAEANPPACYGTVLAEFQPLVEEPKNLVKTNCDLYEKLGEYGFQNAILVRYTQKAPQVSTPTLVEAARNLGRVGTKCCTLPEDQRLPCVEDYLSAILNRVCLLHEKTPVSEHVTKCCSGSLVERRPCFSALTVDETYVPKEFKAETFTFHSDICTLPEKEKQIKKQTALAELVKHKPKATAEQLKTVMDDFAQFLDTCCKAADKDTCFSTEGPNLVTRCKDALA

On to GCQAHYWYRVWFCKQDSDCLAGCVCGPNGFCG [Ig-EET-1 (synthetic)], for which the Kd with rabbit IgG Fc and with mouse IgG Fc was greater than 20000 nM each time.

For VGECVRGRCSQISCCSQFGYCGKGPKYCG [Ig-AMP-3 (synthetic)], in the assay with rabbit IgG Fc, the Kd (commonly the concentration at which binding is half-saturated) was roughly 1850 nM.

As for B1, the Kd with Hs-CHR-3 (synthetic) came to 2000 nM. This lies in the single-digit micromolar range.

For B2, the Kd with Ig-CON-5 (synthetic) is greater than 30 nM; with protein A it was 0.167 nM.

On to VGECVRGRCSKISCCSQFGYCGKGPKYCG [Ig-AMP-1 (synthetic)], for which the Kd with rabbit IgG Fc is roughly 1410 nM; in the assay with mouse IgG Fc it was greater than 20000 nM.

Regarding RLIEDICLPRWGCLWEDD [SA21], the Kd was determined as 160 nM with mouse serum albumin, 100 nM with rabbit serum albumin, 650 nM in the assay with human serum albumin and 190 nM with rat serum albumin.

As for B3, the Kd was roughly 1200 nM with Ig-CON-5 (synthetic) and 1.5 nM with protein A.
